Assay results as given in publication PMC5937737, “RIT1 controls actin dynamics via complex formation with RAC1/CDC42 and PAK1” (PLoS Genetics, 2018).

Experiments:
Experiment in all cases: pull-down; in-vitro binding assay: GST fusion protein (1 μM) on glutathione agarose mixed with His-RIT1 (0.5 μM or a concentration series) loaded with GDP or GTPγS; 20 mM Tris-HCl, 100 mM NaCl, 0.1% Triton X-100, 1 mM DTT, 100 mM MgCl2; 30 min at room temperature; anti-His immunoblot
Conditions in all cases: both partners purified
[1] = biological target: T1, His-RIT1^WT (amino acids 1-201) (human, UniProt Q92963-1 1-201)
T1 construct: RIT1, human; loaded with GDP or non-hydrolyzable GTPγS before the assay; also called His-tagged RIT1; recombinant His-tagged RIT1 wildtype; source: E. coli BL21 (pET151/D-TOPO-RIT1^WT), purified
T1 sequence (Q92963 1-201): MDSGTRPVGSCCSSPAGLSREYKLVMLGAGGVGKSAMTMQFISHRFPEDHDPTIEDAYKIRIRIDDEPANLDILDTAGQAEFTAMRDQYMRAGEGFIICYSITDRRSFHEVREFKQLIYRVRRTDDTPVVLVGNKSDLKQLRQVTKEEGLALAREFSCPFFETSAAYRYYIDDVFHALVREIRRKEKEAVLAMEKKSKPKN

[2] = biological target: T2, His-RIT1^A57G (amino acids 1-201) (human, UniProt Q92963-1 1-201, A57G)
T2 construct: RIT1, human; Noonan syndrome-associated substitution in switch I; loaded with GDP or non-hydrolyzable GTPγS before the assay; also called RIT1 mutant p.A57G (recombinant); source: E. coli BL21 (pET151/D-TOPO-RIT1^A57G), purified
T2 sequence (Q92963 1-201 A57G): as the sequence (Q92963 1-201) above, with A57G counted along it

[3] = biological target: T3, His-RIT1^F82L (amino acids 1-201) (human, UniProt Q92963-1 1-201, F82L)
T3 construct: RIT1, human; Noonan syndrome-associated substitution in switch II; loaded with GDP or non-hydrolyzable GTPγS before the assay; also called RIT1 mutant p.F82L (recombinant); source: E. coli BL21 (pET151/D-TOPO-RIT1^F82L), purified
T3 sequence (Q92963 1-201 F82L): as the sequence (Q92963 1-201) above, with F82L counted along it

Row | Binder | binding result [1] | binding result [2] | binding result [3]
1 | GST-CDC42 (amino acids 1-178) (domain or fragment, CDC42, amino acids 1-178; loaded with GDP or GTPγS before the assay; source: E. coli BL21 (pGEX-4T3-CDC42), isolated, coupled to glutathione agarose beads) not shown | binds |  | 
2 | GST-PAK[CRIB] (domain or fragment, UniProt Q13153 58-141, looked up, PAK1, CRIB domain, amino acids 58-141; source: E. coli BL21 (pGEX-2TK-PAK[CRIB]), isolated, coupled to glutathione agarose beads) ILPGDKTNKKKEKERPEISLPSDFEHTIHVGFDAVTGEFTGMPEQWARLLQTSNITKSEQKKNPQAVLDVLEFYNSKKTSNSQK | binds | binds | binds
